Test results published in PMC5515355, “Frizzled 7 and PIP2 binding by syntenin PDZ2 domain supports Frizzled 7 trafficking and signalling” (Nature Communications, 2016).
Values belong to the molecule of their own block, whether it stands above or below them. Ends that are not written are not given here. carboxifluorescein = carboxyfluorescein

Experiments:
[1] = target: syntenin PDZ1–PDZ2 tandem (amino acids 107–275), wild type (human) (UniProt O00560); experiment: ITC; VP-ITC; Frizzled 7 peptide (1.0 mM) injected (32 x 8 μl) into PDZ1–PDZ2 tandem (30–60 μM); 10 mM Mes pH 7.0, 5 mM β-mercaptoethanol; binary sequential binding model
[2] = target: T1, syntenin PDZ1–PDZ2 tandem (amino acids 107–275), wild type (human, UniProt O00560 107-275); experiment: MST; as a7, in the presence of Ins(1,4,5)P3 head group (concentration not stated); fit of Hill's equation; details: both partners purified
T1 construct: syntenin, PDZ1–PDZ2 tandem, amino acids 107–275; also called PDZ tandem of syntenin; PDZ1–PDZ2 tandem wild-type; source: ER2566 cells (pETM-11 vector), purified; not shown: His6, N-terminal, kept
T1 sequence (looked up): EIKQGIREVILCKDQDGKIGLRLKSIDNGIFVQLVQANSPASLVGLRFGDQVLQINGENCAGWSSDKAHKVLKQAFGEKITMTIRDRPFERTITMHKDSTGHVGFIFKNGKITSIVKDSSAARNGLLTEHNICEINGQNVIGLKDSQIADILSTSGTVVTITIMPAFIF

[3] = target: T2, syntenin PDZ2 domain (residues 196–275), wild type (human, UniProt O00560 196-275); experiment: SPR; BIAcore T200, 25 °C; biotinylated Frizzled 7 19mer peptides (100 RU) immobilised on a streptavidin chip, His-tagged syntenin proteins as analytes; 10 mM HEPES pH 7.4, 150 mM NaCl, 0.005% Tween 20; equilibrium titration, apparent KD; without IP3; details: both partners purified
T2 construct: syntenin, PDZ2 domain, amino acids 196–275; also called PDZ2 wild type; source: ER2566 cells (pETM-11 vector), purified recombinant; not shown: His6, N-terminal, kept
T2 sequence (looked up): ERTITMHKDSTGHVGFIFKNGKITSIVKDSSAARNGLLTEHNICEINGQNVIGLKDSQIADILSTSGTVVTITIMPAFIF

[4] = target: T3, syntenin PDZ2 domain (196–275) K214A/K250A (human, UniProt O00560 196-275, K214A | K250A); experiment: as above; details: both partners purified
T3 construct: syntenin, PDZ2 domain, amino acids 196–275, K214A and K250A; also called PDZ2 double mutant; PDZ2 mutant K214A/K250A; source: ER2566 cells (pETM-11 vector), purified; not shown: His6, N-terminal, kept
T3 sequence (looked up): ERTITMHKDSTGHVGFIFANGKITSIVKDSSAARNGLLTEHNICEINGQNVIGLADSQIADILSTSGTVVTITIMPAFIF

[5] = target: T4, syntenin PDZ1–PDZ2 tandem (107–275) mutant K214A/K250A (human, UniProt O00560 107-275, K214A | K250A); experiment: as above; details: both partners purified
T4 construct: syntenin, PDZ1–PDZ2 tandem, amino acids 107–275, K214A and K250A; PDB 4Z33 holds the wild-type parent of the same limits; also called PDZ1–PDZ2 tandem mutant K214A/K250A; K214A/K250A mutant tandem; source: ER2566 cells (pETM-11 vector), purified; not shown: His6, N-terminal, kept
T4 sequence (looked up): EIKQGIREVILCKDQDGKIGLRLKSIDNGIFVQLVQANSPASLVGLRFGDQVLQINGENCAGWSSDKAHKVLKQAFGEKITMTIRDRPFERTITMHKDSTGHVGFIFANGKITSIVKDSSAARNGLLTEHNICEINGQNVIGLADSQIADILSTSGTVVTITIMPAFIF

[6] = target: T1, syntenin PDZ1–PDZ2 tandem (amino acids …); experiment: as above; details: both partners purified
[7] = target: T5, syntenin PDZ2 domain (196–275) K250A (human, UniProt O00560 196-275, K250A); experiment: as above; details: both partners purified
T5 construct: syntenin, PDZ2 domain, amino acids 196–275, K250A; also called PDZ2 single mutant K250A; source: ER2566 cells (pETM-11 vector), purified; not shown: His6, N-terminal, kept
T5 sequence (looked up): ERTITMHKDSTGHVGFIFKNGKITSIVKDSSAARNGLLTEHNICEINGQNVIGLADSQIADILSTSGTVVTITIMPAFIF

[8] = target: T1, syntenin PDZ1–PDZ2 tandem (amino acids …); experiment: SPR; as a3, but the syntenin protein pre-incubated with 0.5 mM Ins(1,4,5)P3 (IP3, PIP2 head group) before perfusion; apparent KD; details: both partners purified
[9] = target: T2, syntenin PDZ2 domain (residues …); experiment: as above; details: both partners purified
[10] = target: T6, syntenin PDZ2 domain (196–275) K214A (human, UniProt O00560 196-275, K214A); experiment: as above; details: both partners purified
T6 construct: syntenin, PDZ2 domain, amino acids 196–275, K214A; also called PDZ2 single mutant K214A; source: ER2566 cells (pETM-11 vector), purified; not shown: His6, N-terminal, kept
T6 sequence (looked up): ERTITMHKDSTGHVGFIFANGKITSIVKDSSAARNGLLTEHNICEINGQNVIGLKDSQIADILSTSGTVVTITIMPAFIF

[11] = target: T7, syntenin PDZ2 domain (196–275) N215D (human, UniProt O00560 196-275, N215D); experiment: as above; details: both partners purified
T7 construct: syntenin, PDZ2 domain, amino acids 196–275, N215D; also called PDZ2 single mutant N215D; source: ER2566 cells (pETM-11 vector), purified; not shown: His6, N-terminal, kept
T7 sequence (looked up): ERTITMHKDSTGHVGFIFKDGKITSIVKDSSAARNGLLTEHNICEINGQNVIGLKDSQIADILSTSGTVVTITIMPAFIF

[12] = target: T1, syntenin PDZ1–PDZ2 tandem (amino acids …); experiment: crystal structure; PDZ tandem co-crystallised with C4-PIP2 and the Frizzled 7 sixmer, molar ratio protein:lipid:peptide 10:23:23; 2.45 Å; details: both partners purified
[13] = target: T2, syntenin PDZ2 domain (residues …); experiment: SPR; competition: PDZ2 wild type (30 μM) incubated with 0–4 mM 6mer Frizzled 7 peptide (KGETAV), then perfused over the Frizzled 7 peptide immobilised on a BIAcore streptavidin chip; equilibrium responses; details: both partners purified

binding result [4]: binds | binding result [5]: binds | Kd [6]: 8 µM | Kd [3]: 32 µM | binding result [7]: binds | Kd [8]: 2 µM | Kd [9]: 5 µM | binding result [10]: binds | binding result [11]: binds
B3: Frizzled 7 wild-type 19mer, biotinylated C-terminal peptide (SWRRFYHRLSHSSKGETAV) (peptide)
peptide: SWRRFYHRLSHSSKGETAV
modifications: also: biotinylated, position not given here
notes: Frizzled 7, last 19 residues, part of the cytoplasmic domain; K-5 is lysine 569; Immobilised on a streptavidin sensor chip; also called 19 amino acids C-terminal peptide from Frizzled 7; Frizzled 7 19mer; source: synthetic peptide, GenScript

binding result [12]: binds | binding result [13]: binds
B4: C-terminal hexapeptide of Frizzled 7 (KGETAV) (peptide)
peptide: KGETAV
notes: Frizzled 7, C-terminal six residues; K-5 is lysine 569; also called Fz7(6mer); 6mer Frizzled 7 peptide

The next lines start with the molecule.

Molecule: 8mer C-terminal peptide from Frizzled 7 (from UniProt O75084 567-574)
KD of the first site (binary sequential binding model) [1]: 20.5 µM | KD of the second site (binary sequential binding model) [1]: 4.3 µM

B1: 6mer C-terminal peptide from Frizzled 7, N-terminally labelled with carboxifluorescein (peptide)
peptide: carboxifluorescein-KGETAV
notes: Frizzled 7, C-terminal six residues; also called Frizzled 7 peptide (microscale thermophoresis); source: synthetic peptide (chemically synthesized, JPT, Germany)
Kd [2]: 1.2 µM

B2: Frizzled 7 K-5A mutant 19mer, biotinylated (SWRRFYHRLSHSSAGETAV) (peptide)
peptide: SWRRFYHRLSHSSAGETAV
modifications: also: biotinylated, position not given here
notes: Frizzled 7, last 19 residues with the lysine at position -5 (lysine 569) replaced by alanine; Immobilised on a streptavidin sensor chip; also called Frizzled 7 K-5A 19mer; source: synthetic peptide, GenScript
binding result [3]: binds
